Measurements from patent publication US12012599B2, “Compositions and methods for modulating left-right differentiation factor (LEFTY) and bone morphogenic factor (BMP)” (CZ Biohub SF LLC, priority 2018, dated 2024).

Key:
pSMAD5 [1] = assay: pSMAD5 immunofluorescence in MDA-MB-231; format: cell-based; conditions: 50 ng/mL BMP7 30 minutes, absence or presence of LEFTY 200 ng/mL
Experimental: FIGS. 20 and 21 are data from an experiment in which the breast cancer cell line MDA-MB-231 was plated and serum starved for 24 hours. 50 ng/mL BMP7 was added for 30 minutes to activate pSMAD5, either in the absence or presence of exogenous LEFTY (200 ng/mL). LEFTY-BMPR2 interaction, BMP7-BMPR2 interaction (as visualized by Proximity Ligation Assay, red), pSMAD5 status (As visualized by Immunofluorescence, green) were monitored and captured.
Breast cancer cell line MDA-MB-231 was plated and serum starved for 24 hours. 50 ng/mL BMP7 was added for 30 minutes to activate pSMAD5, either in the absence or presence of exogenous LEFTY (200 ng/mL) and LEFTY Antagonist (sc7408p) increasing in dose from 1x to 256x (x=25 ng/mL). LEFTY-BMPR2 interaction, BMP7-BMPR2 interaction (as visualized by Proximity Ligation Assay, red), pSMAD5 status (As visualized by Immunofluorescence, green) were monitored and captured.

pSMAD5 [2] = assay: Immunofluorescent pSMAD5 positive cells in mammary glands exposed to ligand-secreting fibroblasts; format: in vivo, mouse
Experimental: FIGS. 4A-4I. LEFTY1 inhibits the phosphorylation of SMAD2 and SMAD5 in basal mammary epithelial cells. FIGS. 4A-4C show exemplary quantification of pSMAD2 and pSMAD5 positive cells within the luminal and basal cells of mammary glands isolated from mice that were injected with control or LEFTY1-secreting L1 fibroblasts. Immunofluorescent detection of pSMAD2 or pSMAD5 proteins was used to visualize positive cells. KRT8 and SMA were used to determine the luminal or basal cells, respectively. […] Immunofluorescent detection of pSMAD2 or pSMAD5 proteins was used to visualize positive cells. KRT8 and SMA were used to determine the luminal or basal cells, respectively. FIGS. 4H-4I show representative images of the quantified sections for pSMAD2 and pSMAD5 analysis (Magnification, 400×). Data are represented as median±S.D. Statistical analysis, Student's T-test, n.s. non-significant; ****p<0.0001.
FIGS. 5A-5H. LEFTY1 inhibits pSMAD2 and pSMAD5 in the basal mammary epithelial cells. […] KRT8 was used to stain the luminal cells and SMA for basal cells (Magnification 400×). […] Gapdh was used as a housekeeping gene. […] Ten different fields were counted per condition (n=3). Data are represented as median±S.D. Statistical analysis, (a and b) Student's T-test, * p<0.05; (h) One-way ANOVA with Dunnet's adjustment, ****p<0.0001.

mammary gland = assay: Mammary branching after injection of LEFTY1- or BMP7-secreting L1 fibroblasts into mammary fat-pad; format: in vivo, mouse; conditions: secreted ligand from transplanted fibroblasts; whole mount staining
Experimental: FIGS. 2A-2F. Effect of LEFTY1 and BMP7 in mammary glands. […] Ducts and terminal end buds (TEB) were analyzed for BMP7 positive cells. SMA and DAPI were used to identify basal cells and for nuclear counterstain, respectively (Magnification 200×). […] Ducts and terminal end buds (TEB) were analyzed for LEFTY1 positive cells. SMA and DAPI were used to identify basal cells and for nuclear counterstain, respectively (Magnification 200×). […] Four to seven images per mouse were analyzed for quantification. […] Four to seven images per mice were analyzed for quantification. […] Data are represented as median±S.E.M. Statistical analysis, Student's T-test, *p<0.05; ***p<0.001.
FIGS. 3A-3C. Effects of LEFTY1 and BMP7 on the morphology of the mouse mammary gland. […] Four to seven images per mouse were analyzed for quantification. […] Four to seven images per mouse were analyzed for quantification. Data are represented as median±S.E.M. Statistical analysis, Student's T-test, *p<0.05; **p<0.01; ****p<0.0001.
We first developed a system where transplantation of engineered non-autologous mammary fibroblast cells secreted particular ligands (FIG. 2C). […] These opposing results were unexpected, since both LEFTY1 and BMP7 have been described to have similar suppressive roles on NODAL/SMAD2/3 signaling (Chen et al., Current biology: CB 14, 618-624 (2004) and Yeo et al., Molecular cell 7, 949-957 (2001)).

mammary epithelial cells = assay: Mammary outgrowth formation on transplantation (ELDA); format: in vivo, mouse; conditions: primary transplantation
From the text: FIGS. 10A-10G. Mammary epithelial cells rely on LEFTY1 for their long-term proliferation potential. FIG. 10A is a schematic representation of the procedure used to inject control, LEFTY1- or BMP7-expressing mammary fibroblasts into the proximity of the mammary gland of 14-18 weeks old NSG female mice. Two to three weeks later, the mammary epithelial cells were isolated and injected in a limiting dilution fashion into weaning age […] mice to assess their engraftment potential. […] The next day, the transduced cells were injected in the cleared fat-pads of weaning age mice in order to test their exogenous mammary epithelial repopulation ability. […]
FIGS. 11A-11F. […] The number of positive outgrowths from the total of transplanted glands are shown, as well as the frequency and 95% CI of engrafting cells calculated by ELDA. […] The frequency and 95% CI was calculated using extreme limiting dilution analysis (ELDA). […]
Alteration of signaling pathways such as Wnt, Hedgehog and Notch results in branching phenotypes that may be linked to the frequency of cells that can be transplanted and originate mammary ducts in recipient mice (Lu & Werb, Science 322, 1506-1509 (2008)). We transplanted endogenous mammary epithelial cells that had been exposed to LEFTY1 or BMP7 for ^˜15 days in vivo and assessed ductal outgrowth formation upon transplantation into secondary recipients (FIG. 10A). […]

B1: LEFTY1: left-right determination factor 1, secreted TGF-β superfamily protein; generic LEFTY may mean LEFTY1 or LEFTY2 (protein, UniProt O75610 77-366, looked up)
Left-right determination …: RFSQSFREVAGRFLALEASTHLLVFGMEQRLPPNSELVQAVLRLFQEPVPKAALHRHGRLSPRSARARVTVEWLRVRDDGSNRTSLIDSRLVSVHESGWKAFDVTEAVNFWQQLSRPRQPLLLQVSVQREHLGPLASGAHKLVRFASQGAPAGLGEPQLELHTLDLGDYGAQGDCDPEAPMTEGTRCCRQEMYIDLQGMKWAENWVLEPPGFLAYECVGTCRQPPEALAFKWPFLGPRQCIASETDSLPMIVSIKEGGRTRPQVVSLPNMRVQKCSCASDGALVPRRLQP
pSMAD5 [1]
  pSMAD5 status: reduces
pSMAD5 [2]
  pSMAD5 in basal cells: significant decrease
  pSMAD5 protein levels in luminal cells: significant decrease
Mammary gland
  extent and number of mammary tree branches: significant localized increase
Mammary epithelial cells
  frequency of ductal outgrowths: significantly increased

B2: BMP7: bone morphogenetic protein 7, BMPR2 ligand (protein)
chain: STGSKQRSQNRSKTPKNQEALRMANVAENSSSDQRQACKKHELYVSFRDLGWQDWIIAPEGYAAYYCEGECAFPLNSYMNATNHAIVQTLVHFINPETVPKPCCAPTQLNAISVLYFDDSSNVILKKYRNMVVRACGCH
pSMAD5 [1]
  pSMAD5 status: activates pSMAD5
pSMAD5 [2]
  pSMAD5 in basal cells: significant increase
  pSMAD5 protein levels in luminal cells: no effect
Mammary gland
  extent and number of mammary tree branches: decreased
Mammary epithelial cells
  frequency of ductal outgrowths: did not affect
